In patent US20260097113A1 (Pfizer, published 2026):

T1: RSV F protein of subtype A comprising a polypeptide of SEQ ID NO: 1 and a polypeptide of SEQ ID NO: 2 (RSV subtype A, UniProt P11209 137-513; P03420 26-109)
T1 construct: Stabilized prefusion F trimer made of three F2-F1 heterodimers; Produced recombinantly in CHO cells; also called RSV A; RSVA
T1 chain 1: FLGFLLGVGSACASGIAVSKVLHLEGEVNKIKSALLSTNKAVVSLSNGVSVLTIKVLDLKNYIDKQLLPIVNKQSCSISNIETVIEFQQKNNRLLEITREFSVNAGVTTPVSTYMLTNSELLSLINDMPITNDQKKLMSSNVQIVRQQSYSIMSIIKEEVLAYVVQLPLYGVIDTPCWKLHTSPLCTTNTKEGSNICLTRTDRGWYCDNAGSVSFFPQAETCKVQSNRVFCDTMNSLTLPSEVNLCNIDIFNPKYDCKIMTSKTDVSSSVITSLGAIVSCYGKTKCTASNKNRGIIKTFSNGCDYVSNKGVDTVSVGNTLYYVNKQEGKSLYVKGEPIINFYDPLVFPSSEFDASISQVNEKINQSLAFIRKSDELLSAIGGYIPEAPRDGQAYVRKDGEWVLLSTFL
T1 chain 2: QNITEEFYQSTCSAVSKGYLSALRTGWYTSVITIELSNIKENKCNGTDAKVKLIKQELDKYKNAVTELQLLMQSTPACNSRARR

T2: RSV F protein comprising a polypeptide of SEQ ID NO: 3 and a polypeptide of SEQ ID NO: 4 (RSV subtype B, UniProt O36634 137-513; O36634 26-109)
T2 construct: also called RSV B; RSVB
T2 chain 1: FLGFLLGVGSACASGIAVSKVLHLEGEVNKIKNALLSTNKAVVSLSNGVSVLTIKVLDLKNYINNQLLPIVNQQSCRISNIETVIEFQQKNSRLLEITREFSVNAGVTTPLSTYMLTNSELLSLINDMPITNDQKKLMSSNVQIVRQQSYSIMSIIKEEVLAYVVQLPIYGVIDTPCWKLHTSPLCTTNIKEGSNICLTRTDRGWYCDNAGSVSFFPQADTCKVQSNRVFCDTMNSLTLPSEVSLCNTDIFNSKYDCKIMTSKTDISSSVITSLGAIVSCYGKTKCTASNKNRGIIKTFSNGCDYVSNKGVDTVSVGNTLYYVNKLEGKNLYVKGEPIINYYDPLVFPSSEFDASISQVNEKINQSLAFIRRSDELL
T2 chain 2: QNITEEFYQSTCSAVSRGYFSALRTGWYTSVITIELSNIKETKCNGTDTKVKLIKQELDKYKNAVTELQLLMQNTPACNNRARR


Experiments:
[1] = biological target: RSV A + RSV B bivalent composition (RSV subtype A; RSV subtype B); assay: AM14 Fab titration by SEC; Low-Fast cycle; 1 M 40°C (second value)
[2] = biological target: RSV A + RSV B bivalent composition (RSV subtype A; RSV subtype B); assay: AM14 Fab titration by SEC; Low-Fast cycle; 3 M 25°C
[3] = biological target: RSV A + RSV B bivalent composition (RSV subtype A; RSV subtype B); assay: AM14 Fab titration by SEC; High-Slow 2 cycle; 3 M 25°C
[4] = biological target: RSV A + RSV B bivalent composition (RSV subtype A; RSV subtype B); assay: AM14 Fab titration by SEC; High-Slow 1 cycle; 8 M 40°C
[5] = biological target: RSV A + RSV B bivalent composition (RSV subtype A; RSV subtype B); assay: AM14 Fab titration by SEC; Target cycle; T0 (second value)
[6] = biological target: RSV A + RSV B bivalent composition (RSV subtype A; RSV subtype B); assay: AM14 Fab titration by SEC; Low-Fast cycle; 3 M 2-8°C
[7] = biological target: RSV A + RSV B bivalent composition (RSV subtype A; RSV subtype B); assay: AM14 Fab titration by SEC; Low-Fast cycle; T0
[8] = biological target: RSV A + RSV B bivalent composition (RSV subtype A; RSV subtype B); assay: AM14 Fab titration by SEC; Target cycle; 1 M 2-8°C
[9] = biological target: T1, RSV F protein of subtype A comprising a …; assay: AM14 ELISA; F17 (pH 7, 50 mM NaCl, 4.5% trehalose); T0
[10] = biological target: T1, RSV F protein of subtype A comprising a …; assay: AM14 ELISA; F11 (pH 7, 50 mM NaCl, 9.0% sucrose); 1 wk 5°C
[11] = biological target: T1, RSV F protein of subtype A comprising a …; assay: AM14 ELISA; F3 (pH 8, 0 mM NaCl, 9% sucrose); 1 wk 5°C
[12] = biological target: T1, RSV F protein of subtype A comprising a …; assay: AM14 ELISA; F16 (pH 6, 0 mM NaCl, 0% sucrose); 1 wk 5°C
[13] = biological target: T1, RSV F protein of subtype A comprising a …; assay: AM14 ELISA; F16 (pH 6, 0 mM NaCl, 0% sucrose); 1 wk 25°C
[14] = biological target: T1, RSV F protein of subtype A comprising a …; assay: AM14 ELISA; F19 (pH 7, 50 mM NaCl, 3% trehalose + 3% mannitol); 1 wk 25°C
[15] = biological target: T2, RSV F protein comprising a polypeptide …; assay: AM14 prefusion assay relative to standard; RSV B 480 µg/mL, 2% sucrose + 4% mannitol; post-lyo T0
[16] = biological target: T1, RSV F protein of subtype A comprising a …; assay: AM14 ELISA; F11 (pH 7, 50 mM NaCl, 9.0% sucrose); T0

Row | Molecule | Prefusion Content (%) [1] | Prefusion Content (%) [2] | Prefusion Content (%) [3] | Prefusion Content (%) [4] | Prefusion Content (%) [5] | Prefusion Content (%) [6] | Prefusion Content (%) [7] | Prefusion Content (%) [8] | AM14 prefusion content (%), relative to standard [9] | AM14 prefusion content (%), relative to standard [10] | AM14 prefusion content (%), relative to standard [11] | AM14 prefusion content (%), relative to standard [12] | AM14 prefusion content (%), relative to standard [13] | AM14 prefusion content (%), relative to standard [14] | AM14 prefusion content (%), relative to standard [15] | AM14 prefusion content (%), relative to standard [16]
1 | AM14 Fab | 70% | 66% | 74% | 53% | 77% | 56% | 76% | 59% |  |  |  |  |  |  |  | 
2 | AM14 (trimeric prefusion specific antibody of the AM14 ELISA) (antibody, V domains shown, Antibody as used in the AM14 ELISA, detected with an HRP-labeled secondary antibody) VH: EVQLVESGGGVVQPGRSLRLSCAASGFSFSHYAMHWVRQAPGKGLEWVAVISYDGENTYYADSVKGRFSISRDNSKNTVSLQMNSLRPEDTALYYCARDRIVDDYYYYGMDVWGQGATVTVSS VL: DIQMTQSPSSLSASVGDRVTITCQASQDIKKYLNWYHQKPGKVPELLMHDASNLETGVPSRFSGRGSGTDFTLTISSLQPEDIGTYYCQQYDNLPPLTFGGGTKVEIKR |  |  |  |  |  |  |  |  | 86% | 101% | 104% | 65% | 87% | 75% | 82% | 102%
